This passage reports Kd, koff and kon results from US20230279124A1.

For the assay, the target named is human IgE (human) (UniProt P01854). Description: BLI (Octet RED 384), GI-305 captured on AHC biosensor, IgE 1.6 to 100 nM as analyte. For orientation: BLI is a label-free optical method that tracks binding on a fibre tip over time.
Chain of UniProt P01854 (P01854 other isoform, or with tags, fused parts or gaps): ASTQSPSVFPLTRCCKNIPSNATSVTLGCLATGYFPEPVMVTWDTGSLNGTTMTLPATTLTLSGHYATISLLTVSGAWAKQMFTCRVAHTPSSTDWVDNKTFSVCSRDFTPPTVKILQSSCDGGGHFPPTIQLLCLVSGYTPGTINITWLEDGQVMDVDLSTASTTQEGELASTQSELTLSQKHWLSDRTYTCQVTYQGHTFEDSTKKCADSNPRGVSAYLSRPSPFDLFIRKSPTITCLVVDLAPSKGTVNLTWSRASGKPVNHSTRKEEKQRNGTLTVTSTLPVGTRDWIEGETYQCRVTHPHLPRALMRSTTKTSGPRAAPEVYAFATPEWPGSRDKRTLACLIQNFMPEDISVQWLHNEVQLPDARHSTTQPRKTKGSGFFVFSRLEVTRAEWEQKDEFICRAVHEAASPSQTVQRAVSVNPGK

B1: GI-305 (FcεRIα ECD-Fc-anti-IL-4R scFv) fusion protein dimer (Fc fusion)
chain: VPQKPKVSLNPPWNRIFKGENVTLTCNGNNFFEVSSTKWFHNGSLSEETNSSLNIVNAKFEDSGEYKCQHQQVNESEPVYLEVFSDWLLLQASAEVVMEGQPLFLRCHGWRNWDVYKVIYYKDGEALKYWYENHNISITNATVEDSGTYYCTGKVWQLDYESEPLNITVIKAPREKYWLQGSGGGGSGGGGSGGGGSAESKYGPPCPPCPAPEAAGGPSVFLFPPKPKDQLMISRTPEVTCVVVDVSQEDPEVQFNWYVDGVEVHNAKTKPREEQFNSTYRVVSVLTVLHQDWLNGKEYKCKVSNKGLPSSIEKTISKAKGQPREPQVYTLPPSQEEMTKNQVSLTCLVKGFYPSDIAVEWESNGQPENNYKTTPPVLDSDGSFFLYSRLTVDKSRWQEGNVFSCSVLHEALHNHYTQKSLSLSLGGGGGSGGGGSGGEVQLVESGGGLEQPGGSLRLSCAGSGFTFRDYAMTWVRQAPGKCLEWVSSISGSGGNTYYADSVKGRFTISRDNSKNTLYLQMNSLRAEDTAVYYCAKDRLSITIRPRYYGLDVWGQGTTVTVSSGGGGSGGGGSGGGGSGGGGSDIVMTQSPLSLPVTPGEPASISCRSSQSLLYSIGYNYLDWYLQKSGQSPQLLIYLGSNRASGVPDRFSGSGSGTDFTLKISRVEAEDVGFYYCMQALQTPYTFGCGTKLEIK
What is called Kd is the equilibrium constant for the complex coming apart. Broadly, the koff is the rate constant with which the complex falls apart. Read a low koff as slow dissociation. The term kon denotes a measure of how fast the partners come together. As for B1, the Kd stood at 0.5 nM, the koff was found to be 9.74e-05 s⁻¹ and the kon came out at 201000 M⁻¹ s⁻¹.
